Assay results as given in US20240067944A1 (published 2024).

What was measured:
[1] = target: human plasma-derived FX (Haematologic Technologies Inc, USA) (human) (UniProt P00742); assay: cell-based or functional assay
[2] = target: T1, human plasma-derived FX (Haematologic Technologies Inc, USA) (human, UniProt P00742 41-179; P00742 183-488); assay: cell-based or functional assay
[3] = target: T1, human plasma-derived FX (Haematologic …); assay: SPR, FX captured on immobilised anti-GLA-FX antibody, steady state analysis, 25 C
Description: Briefly, an anti-GLA-FX, prepared recombinantly as described above, was immobilised on a CM4 sensor chip or a Xantec HLC200M using standard amine coupling chemistry at pH 5. 10 nM FX (Haematologic Technologies, USA) was injected at a flow rate of 10 μL/min for 30 seconds. Subsequently 1000, 100, 10, 1, 0.1 and 0 nM of VHH polypeptide compound, according to Table 9, below were injected at a flow rate of 50 μL/min for 200 seconds to allow for binding to FX followed by a flow of 10 minutes with a running buffer (10 mM HEPES, 150 mM NaCl, 5 mM CaCl₂), 0.05% (v/v) Surfactant P20, 1 mg/mL bovine serum albumin, pH 7.4) injection allowing for dissociation from FX. The running buffer was also used for dilution of anti-FX VHH polypeptide compounds. Regeneration of the chip was achieved using a regeneration buffer consisting of 50 mM EDTA in running buffer, 30 seconds contact time, and a 30 μL/min flow rate. The binding data were collected at 25° C. and were analysed according to a 1:1 model using BiaEvaluation 4.1 supplied by the manufacturer (Biacore AB, Uppsala or Bruker Analyser).
(§1) Therefore, the reported KD values are determined based on steady state analysis.

[4] = target: T2, Benefix (Pfizer Inc, USA), FIX (human, UniProt P00740 47-461); assay: SPR, FIX (Benefix) captured on immobilised anti-GLA-FIX antibody, steady state analysis, 25 C
T2 construct: Bought product; also called FIX (Benefix®)
Description: Briefly, anti-GLA-FIX, prepared recombinantly as described above, was immobilised on a CM4 sensor chip or a Xantec HLC200M using standard amine coupling chemistry at pH 5. FIX (10 nM) was injected at a flow rate of 10 μL/min for 1 minute. Subsequently 1000, 100, 10, 1, 0.1 and 0 nM of VHH polypeptide compound were injected at a flow rate of 30 μL/min for 4 minutes to allow for binding to the FIX (Benefix®) followed by a flow of 5 minutes running buffer (10 mM HEPES, 150 mM NaCl, 5 mM CaCl₂), 0.05% (v/v) Surfactant P20, 1 mg/mL bovine serum albumin, pH 7.4) injection allowing for dissociation from FIX. The running buffer was also used for dilution of anti-FIX VHH polypeptide compounds. Regeneration of the chip was achieved using a regeneration buffer consisting of 50 mM EDTA in running buffer, 30 seconds contact time, and a 30 μL/min flow rate. The binding data were collected at 25° C. and were analysed according to a 1:1 model using BiaEvaluation 4.1 supplied by the manufacturer (Biacore AB, Uppsala).
as §1

T1 sequence (P00742 41-179, chain 1 of 2): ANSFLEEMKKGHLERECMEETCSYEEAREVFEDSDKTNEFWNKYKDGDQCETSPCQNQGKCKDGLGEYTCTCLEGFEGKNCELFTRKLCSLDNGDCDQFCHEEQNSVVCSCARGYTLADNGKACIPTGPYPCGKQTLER
T1 sequence (P00742 183-488, chain 2 of 2): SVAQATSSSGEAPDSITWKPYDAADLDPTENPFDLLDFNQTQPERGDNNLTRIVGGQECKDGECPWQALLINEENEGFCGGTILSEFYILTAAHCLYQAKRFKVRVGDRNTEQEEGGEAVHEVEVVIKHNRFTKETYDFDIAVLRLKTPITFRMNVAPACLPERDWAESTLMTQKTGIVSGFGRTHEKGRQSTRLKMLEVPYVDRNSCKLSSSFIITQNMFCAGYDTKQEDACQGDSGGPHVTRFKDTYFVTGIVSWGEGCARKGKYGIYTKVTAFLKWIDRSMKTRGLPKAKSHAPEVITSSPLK
human plasma-derived FX (Haematologic Technologies Inc, USA) (human), sequence (P00742 41-179, chain 1 of 2): as the sequence (P00742 41-179, chain 1 of 2) above
human plasma-derived FX (Haematologic Technologies Inc, USA) (human), sequence (P00742 183-488, chain 2 of 2): as the sequence (P00742 183-488, chain 2 of 2) above
T2 sequence (P00740 47-461 T194A limits assumed): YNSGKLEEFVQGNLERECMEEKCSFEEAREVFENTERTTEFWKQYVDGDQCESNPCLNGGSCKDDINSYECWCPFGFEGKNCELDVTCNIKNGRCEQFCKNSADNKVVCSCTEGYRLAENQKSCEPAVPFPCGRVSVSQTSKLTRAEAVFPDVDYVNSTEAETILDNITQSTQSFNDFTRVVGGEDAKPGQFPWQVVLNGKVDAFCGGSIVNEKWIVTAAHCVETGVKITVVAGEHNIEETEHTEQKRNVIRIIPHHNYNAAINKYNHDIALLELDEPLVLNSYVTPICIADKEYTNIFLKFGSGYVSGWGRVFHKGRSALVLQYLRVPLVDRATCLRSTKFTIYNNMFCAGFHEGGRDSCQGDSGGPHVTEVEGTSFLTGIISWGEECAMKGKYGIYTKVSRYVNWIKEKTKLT

Molecule | KM (nM) of FX activation by 0.1 nM FIXa on phospholipid vesicles with 300 nM antibody [1] [nM] | kcat/KM (1/(min * nM)) of FX activation by 0.1 nM FIXa with 300 nM antibody [1] [min⁻¹ nM⁻¹] | KM (nM) of FX activation by 0.1 nM FIXa on phospholipid vesicles with 5 nM compound [2] [nM] | kcat/KM (1/(min * nM)) of FX activation by 0.1 nM FIXa with 5 nM compound [2] [min⁻¹ nM⁻¹] | Kd [3] [nM] | Kd [4] [nM]
emicizumab sequence identical analogue (SIA) (bispecific antibody) | 53.5 | 0.03 | – | – | – | –
Cmpd #6 (anti-FX/anti-FIX(a) VHH polypeptide derivative) (bispecific antibody, C16 diacid protractor (P2) via linker LP1 on Cys5 and Cys7 in C-term extension (SEQ ID NO: 8), Single chain of two VHH: anti-FX (N-terminal) and anti-FIX(a) (C-terminal)) DVQLVESGGGVVQPGGSLQLSCAASGRTHSRYAMGWFRQAPGQEREFVAAISRRGGSTNYADSVKGRFTISRDNSKNTVYLQMDSLRPEDTALYYCAADDSSGDGYLDYWGQGTLVTVSSGGGGSGGGSEVQLVESGGGVVQPGGSLQLSCAASGRTFNIYTMSWFRQAPGQEREFVAGLRWTDSSTEYADSVKGRFTISRDNSKNTVYLQMDSLRPEDTALYYCAADRSFLFAQALGATKNYEYWGQGTLVTVSSGGGGCSCHHHHHH | – | – | 5.9 | 0.33 | 232 | 4.8
Cmpd #15 (anti-FX/anti-FIX(a) VHH polypeptide derivative) (bispecific antibody, C16 diacid protractor (P2) via linker LP1 on Cys4 and Cys6 in C-term extension (SEQ ID NO:9), Single chain of two VHH: anti-FX (N-terminal) and anti-FIX(a) (C-terminal); also called VHH1.15-L1-2-VHH2.15-E) DVQLVESGGGVVQPGGSLQLSCAASGGTKRRLAMGWFRQAPGQEREWVAAISRRGGSTNYADSVKGRFTISRDNSKNTVYLQMDSLRPEDTALYYCAADDSVGDGYLDYWGQGTLVTVSSGQAPGQEVQLVESGGGVVQPGGSLQLSCAASGRTFNIYTMSWFRQAPGQEREFVAGLRWTDSSTEYADSVKGRFTISRDNSKNTVYLQMDSLRPEDTALYYCAADRSFLFAQALGATKNYEYWGQGTLVTVSSGQACPC | – | – | 6.9 | 0.25 | 350 | 3
